Test results reported in article PMC4246082, “A Coiled-coil Clamp Controls Both Conformation and Clustering of Stromal Interaction Molecule 1 (STIM1)*” (The Journal of Biological Chemistry, 2014).

Target: the molecule itself
Experiment: SEC; Superdex S200 10/300 GL, 4 °C; 100-μl injections of 1.25 mg/ml and 0.25 mg/ml CC3ext; in-line MALS gave no molecular weight because of elution in the void volume

B1: STIM1 CC3ext (residues 388-491) (domain or fragment, human, UniProt Q13586-1 388-491, looked up)
chain: NTLFGTFHVAHSSSLDDVDHKILTAKQALSEVTAALRERLHRWQQIEILCGFQIVNNPGIHSLVAALNIDPSWMGSTRPNPAHFIMTDDVDDMDEEIVSPLSMQ
notes: STIM1, human, residues 388-491 (CC3ext); Subcloned into pET-28a via NheI and XhoI; monomer 12.2 kDa on SDS-PAGE; also called recombinant CC3 fragment
binding result: binds
